Assay: yeast display, Sf9 membrane polyspecificity reagent, FACS + sequencing; frameworks hold sequencing errors
Procedure, shortened: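 Nanobodies from a synthetic yeast display library (Saccharomyces cerevisiae BJ5465), induced 36–48 hours with galactose, were stained 1 hour at 4 °C with 10% biotinylated, detergent-solubilized Sf9 membrane reagent, enriched on streptavidin microbeads, then FACS-sorted. Anti-HA (expression) and streptavidin (reagent binding) fluorescence set low and high (top ~1%) gates. Polyreactivity labels come from the gate of origin. Genes were colony-PCR amplified, MiSeq 2 × 250 sequenced and filtered by CDR length.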

Sequence	polyreactivity (PSR sort gate)
QVQLVESGGGLVQAGGSLRLSCAASGSIFYDYAMGWYRQAPGKERELVATISSGGSTNYADSVKGRFTISRDNAKNTVYLQMNSLKPEDTAVYYCNVDGRRYPHEFDYWGQGTQVTVSS	low polyreactivity
QVQLVESGGGLVQAGGSLRLSCAASGSIFYENAMGWYRQAPGKEREFVATIDLIGDRTYYADSVKGRFTISRDNAKNTVYLQMNCLKPEDTAVYYCAAERVGVFFRYDYWGQGTQVTVSS	low polyreactivity
QVQLVESGGGLVQAGGSLRLSCAASGSIFYENAMGWYRQAPGKERELVAAISRSGGSTYYADSVKGRFTISRDNAKNTVSLQMNSLKPEDTAVYYCAADVYVFIGDYWGQGTQVTVSS	low polyreactivity
QVQLVESGGGLVQAGGSLRLSCAASGSIFYFNAMGWYRQAPGKERELVADISGSGGSTYYADSVKGRFTISRDNAKNTVYLQMNSLKPEDTAVYYCAARLYLHSWWYYAYDYWGQGTQVTVSS	high polyreactivity
QVQLVESGGGLVQAGGSLRLSCAASGSIFYFNAMGWYRQATGKERELVADISWSGGDSTYYADSVKGRFTISRDNAKNTVYLQMNSLKPEDTAVYYCAADLSYPDWSRYQWDMDYWGQGTQVTVSS	low polyreactivity
QVQLVESGGGLVQAGGSLRLSCAASGSIFYFNPMGWYRPAPGKERELVAAISWSGRTYYADSVKGRFTISRDNAKKTVYLQMNSLKPEDTAVYYCNAAYHYYGKYDYWGQGTQVTVSS	high polyreactivity
QVQLVESGGGLVQAGGSLRLSCAASGSIFYGNAMGWYRPAPGKERELVAGITSGVGTNYADSVKGRFTISRDNAKNTVYLQMNSLKPEDTAVYYCNARYVYWIKGHDYWGQGTQVTVSS	high polyreactivity
QVQLVESGGGLVQAGGSLRLSCAASGSIFYGNAMGWYRPAPGKERELVARISWSGSNTRYADSVKGRFTISRDNAKNTVYLQMNSLKPEDTAVYYCNARGFPGKFGYWGQGTQVTVSS	high polyreactivity
QVQLVESGGGLVQAGGSLRLSCAASGSIFYGNAMGWYRQAPGKERELVASITYSGGTTNYADSVKGRFTISRDNAKNTVYLQMNCLKPEDTAVYYCNADIYPDRYGSTNYDFNYWGQGTQVTVSS	low polyreactivity
QVQLVESGGGLVQAGGSLRLSCAASGSIFYGNTMGWYRQAPGKDRELVASITRPGDRTYYADSVKGRFTISRDNAKNTVYLQMNSLKPEDTAVYSCNAGLVLPPPGASIVYFDQMDYWGQGTQLTVSS	low polyreactivity
QVQLVESGGGLVQAGGSLRLSCAASGSIFYGNTMGWYRQAPGKERELVAAITWSGDSTYYADSVKGRFTISRDIAKNTVYLQMISLKPEDTALYYCNADQTGVYYAGEGNHWGQGTQVSVSS	low polyreactivity
QVQLVESGGGLVQAGGSLRLSCAASGSIFYGYAMGWYRQAPGKERELVAAIRWSDGSTYYADSVKGRFTISRDNAKNTVYLQMNSLKPEDTAVYYCNADLWVPSYLWGDYWGQGTQVTVSS	low polyreactivity
QVQLVESGGGLVQAGGSLRLSCAASGSIFYGYAMGWYRQAPGKERELVASISKRGGSTYYADSVKGRFTISRDNAKNTVYLQMNSLKPEDTAVYYCAAEGVVYREYNYWGQGTQVTVSS	high polyreactivity
QVQLVESGGGLVQAGGSLRLSCAASGSIFYHNAMGWYRQAPGKERELVAAISRSGGITSYADSVKGRFTISRDNAKNTVYLQMNSLKPEDTAVYYCAARSYYDGFYYWGQGTQVTVSS	high polyreactivity
QVQLVESGGGLVQAGGSLRLSCAASGSIFYHNPMGWYRQAPGKERELVAAITSRGGRTTYADSVKGRFTISRDNAKNTVYLQMNSLKPEDTAVYYCNAVYTGYSYISRVDYWGQGTQVTVSS	low polyreactivity
QVQLVESGGGLVQAGGSLRLSCAASGSIFYHYAMGWYRQAPGKVRELFAAISGSGGSTYYADSVKGRFTISRDNAKNTVYLQMNSLKPEDSAVYYCAADTSRYHYTRYFFDSDYWGQGTQVTVSS	low polyreactivity
QVQLVESGGGLVQAGGSLRLSCAASGSIFYINAMGWYRQAPGKEREFVATITWSGDSTYYADSVKGRFTISRDNAKNTVYLQMNSLKPEDTAVYYCTARKQYQSYVDWEYDYWGQGTQVTVSS	low polyreactivity
QVQLVESGGGLVQAGGSLRLSCAASGSIFYINAMGWYRQAPGKERELVAAITSGGTYYADSVKGRFTISRDTAKNTVYLQMNSLKPEDTAVYYCAADREGTPLFDYWGQGTQVTVSS	low polyreactivity
QVQLVESGGGLVQAGGSLRLSCAASGSIFYINAMGWYRQAPGKERELVAAITWRGAGTYYADSVKGRFTISRDNAKNTVYLQMNSLKPEDTAVYYCAADDSPWRVPRNYWGQGTQVTVSS	low polyreactivity
QVQLVESGGGLVQAGGSLRLSCAASGSIFYIYAMGWYRQAHGKERELVAAISSGGATYADSVKGRFTISRDNAKNTVYLQMNSLKPEDTAVYYFAVDRAFRAQNYHEYDYWGQGTQVTVSS	low polyreactivity

Sequence	polyreactivity (PSR sort gate)
QVQLVESGGGLVQAGGSLRLSCAASGSIFYIYAMGWYRQAPGKETELVASISRSGGSTYYADSVKGRFTISRDNAKNTVYLQMNSLKPEDTAVYYCAAVITFYRYPPGETYYYWGQGTQVTVSS	high polyreactivity
QVQLVESGGGLVQAGGSLRLSCAASGSIFYKNAMGWYRQAPGKERELVAAITYSGGSTYYADSVKGRFTISRDNAKNTVYLQMNSLKPEDTAVYYCAADIGVYGERREEEYDYWGQGTQVTVSS	low polyreactivity
QVQLVESGGGLVQAGGSLRLSCAASGSIFYKYMGWNIQAPGKERELVAAISWSGGRTYYADSVKGRFTISRDNAKNTVYLQMNSLKPEDTAVYYCNRVVLWRIGDKAFEYWGQGTQVTVSS	high polyreactivity
QVQLVESGGGLVQAGGSLRLSCAASGSIFYKYVMGWYRQAPGKERELVAAISRGGGSTYYADSVKGRFTISRDNAKNTVYLQMNSLKPEDTAVYYCNAVGRPRYGHGFDHWGQGTQVTVSS	high polyreactivity
QVQLVESGGGLVQAGGSLRLSCAASGSIFYLYAMGWYRQAPGKERELVASIRWSGGNTYYADSVKGRFTISRDNAKNTVYLQMNSLKPEDTAVYYCAARTSTHGSSYSIRRFGYWGQGTQVTVSS	high polyreactivity
QVQLVESGGGLVQAGGSLRLSCAASGSIFYNTMGWYRQAPGKERELVAAISGTRASTYYADSVKGRFTISRDNAKNTVYLQMNSLKPEDTAVYYCAAVPAYPRDYDYWGQGTQVTVSS	low polyreactivity
QVQLVESGGGLVQAGGSLRLSCAASGSIFYNYAMGWYRQAPGKERELVATITRSDGSTYYADSVKGRFTISRENAKNTVYLQMNSLKPEDTAVYYCAADSGSTSEYEYWGQGTQGTVSS	low polyreactivity
QVQLVESGGGLVQAGGSLRLSCAASGSIFYPNAMGWYRQAPGKEREFVAAITWNGDSTYYADSVKGRFTISRDNAKNTVYLQMNSLKPEDTAVYYCNTDGQGIYSYNKDLSWISGYDYWGQGTQVTVSS	low polyreactivity
QVQLVESGGGLVQAGGSLRLSCAASGSIFYPNAMGWYRQAPGKERELVAAITTGGSTNYADSVKGRFTISRDNAKNTVYLQMNSLKPEDTAVYYCNARHRYHSYTQPRWKYVYWGQGTQVTVSS	low polyreactivity
QVQLVESGGGLVQAGGSLRLSCAASGSIFYPNAMGWYRQAPGKERELVADINTSGGDTYYADSVKGRFTISRDNAKNTVYLQMNSLKPEDTAVYYGAAEGYLYQYTSKPSDYWGQGTQVTVSS	low polyreactivity
QVQLVESGGGLVQAGGSLRLSCAASGSIFYPYAMGWYRPAPGKERELVAGITGGGRTYYADSVKGRFTISRDNAKNTVYLQMNSLKPEDTAVFYCAAVDFVSYYIPFHYEYYWGQGTQVTVSS	low polyreactivity
QVQLVESGGGLVQAGGSLRLSCAASGSIFYPYAMGWYRQAPGKEREFVAAITRSGGSTSYADSVKGRFTISRDNAKNTVYLHMNSLKPEDTAVYYCAAGYWYPDYDGFDYWGQGTQVTVSS	low polyreactivity
QVQLVESGGGLVQAGGSLRLSCAASGSIFYPYAMGWYRQAPGKERELVAAIRRSGTTYYADSVKGRFTISRDNAKNTVYLQMNSLKPEDTAVYYCNKVRGQEPSNYDYWGQGTQVTVSS	low polyreactivity
QVQLVESGGGLVQAGGSLRLSCAASGSIFYPYAMGWYRQAPGKERELVAAISYSGGITYYADSVKGRFTISRDNAKNTVYLQMNSLKPEDTAVYYCNKLIYFKPAGSHDYWGQGTQVTVSS	high polyreactivity
QVQLVESGGGLVQAGGSLRLSCAASGSIFYPYAMGWYRQAPGKERELVAAITWSGGDTYYADSVKGRFTISRDKAKYTDYLQMNSLKPEDTAVYYSAAEWNVSPYDYWGQGTQVTVSS	low polyreactivity
QVQLVESGGGLVQAGGSLRLSCAASGSIFYPYAMGWYRQAPGKERELVADINSDGSTTYADSVKGRFTISRDNAKNTVYLQMNSLKPEDTAVYYCAVDVSVNWPLLERYEYWGQGTQVTVSS	low polyreactivity
QVQLVESGGGLVQAGGSLRLSCAASGSIFYPYAMGWYRQAPGKEREWVATITLSGGRTYYADSVKGRFTISRDNAKNTVYLQMNSLKPEDTAVYYCATDYAYGAFLYDYWGQGTQVTVSS	low polyreactivity
QVQLVESGGGLVQAGGSLRLSCAASGSIFYPYVMGWYRQAPGKERELVAAITTSVGSTYYADSVKGRFTISRDNAKNTVYLQMNSLKPEDTAVYYCAAIYFGSRRPGRYNYWGQGTQVTVSS	high polyreactivity
QVQLVESGGGLVQAGGSLRLSCAASGSIFYQNAMGWYRQAPGKEREFVAAIRSSGSSTYYADSVKGRFTISRDNAKNTVYLQMNSLKPEDTAVYYCAAPSSRGQGRNFDYWGQGTQVTVSS	high polyreactivity
QVQLVESGGGLVQAGGSLRLSCAASGSIFYQYAMGWYRQAPGKEREMLAAIRYSGSSTYYADSVKGRFTISRDNAKNTVYLQMNSLKPEDTEVYYCGKTLRRRRGDRRYRVIEMDHWGQGTQVTVSS	low polyreactivity

Source: the nanobody polyreactivity screen of Harvey et al. (2022)
